This note sets out measurements from FireProtDB (doi:10.1021/bi972279a).

For this data set the following is noted: Saccharomyces cerevisiae (strain ATCC 204508 / S288c), pH 4.6, Thermal, CD, acetate 100 mM, reversible: yes; for ddG of mutation (higher = less stable) / heat capacity change of unfolding / unfolding free energy: 25 °C.

Cytochrome c isoform 1 P82V, P00044, sequence (P00044 whole entry P82V, canonical isoform): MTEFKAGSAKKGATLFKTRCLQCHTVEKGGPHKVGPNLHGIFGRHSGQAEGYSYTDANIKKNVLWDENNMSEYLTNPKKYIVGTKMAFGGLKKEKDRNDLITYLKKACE
Cytochrome c isoform 1 P82S, P00044, sequence (P00044 whole entry P82S, canonical isoform): as the sequence (P00044 whole entry P82V, canonical isoform) above, with V82S counted along it
Cytochrome c isoform 1 P82Y, P00044, sequence (P00044 whole entry P82Y, canonical isoform): as the sequence (P00044 whole entry P82V, canonical isoform) above, with V82Y counted along it
Cytochrome c isoform 1 P82R, P00044, sequence (P00044 whole entry P82R, canonical isoform): as the sequence (P00044 whole entry P82V, canonical isoform) above, with V82R counted along it
Cytochrome c isoform 1 P82W, P00044, sequence (P00044 whole entry P82W, canonical isoform): as the sequence (P00044 whole entry P82V, canonical isoform) above, with V82W counted along it
Cytochrome c isoform 1 wild type, P00044, sequence (P00044 whole entry, canonical isoform): as the sequence (P00044 whole entry P82V, canonical isoform) above, with V82P counted along it
Cytochrome c isoform 1 P82G, P00044, sequence (P00044 whole entry P82G, canonical isoform): as the sequence (P00044 whole entry P82V, canonical isoform) above, with V82G counted along it
Cytochrome c isoform 1 P82L, P00044, sequence (P00044 whole entry P82L, canonical isoform): as the sequence (P00044 whole entry P82V, canonical isoform) above, with V82L counted along it

Take Cytochrome c isoform 1 P82G, P00044: under “structure 1YCC”, the “ddG of mutation (higher = less stable)” value was 0.78 kcal/mol, the “heat capacity change of unfolding” value is 1.37 kcal/mol/K, the unfolding free energy is 4.3 kcal/mol and the Tm was 48.5 °C. For the same substance, the “change of melting temperature, mutant - wild type (higher = more stable)” value (shortened to “change of melting temperature, mutant”) (structure 1YCC) is -5 °C.
Take Cytochrome c isoform 1 P82L, P00044: where the note is “structure 1YCC”, the Tm stood at 48.6 °C and the “change of melting temperature, mutant” value is -4.9 °C.
Turning to Cytochrome c isoform 1 P82R, P00044, where the note is “structure 1YCC”, the “ddG of mutation (higher = less stable)” value worked out at 0.97 kcal/mol, the “heat capacity change of unfolding” value was 1.37 kcal/mol/K, the unfolding free energy stood at 4.11 kcal/mol and the Tm was 48.6 °C. In addition, where the note is “structure 1YCC”, the “change of melting temperature, mutant” value was -4.9 °C.
In the same order, the values of Cytochrome c isoform 1 P82S, P00044 are 1.89 kcal/mol, 1.37 kcal/mol/K, 3.19 kcal/mol, 47.8 °C and -5.7 °C.
In the same order, the values of Cytochrome c isoform 1 P82V, P00044 are 1.07 kcal/mol, 1.37 kcal/mol/K, 4.01 kcal/mol, 48.3 °C and -5.2 °C.
On the same counts, the results for Cytochrome c isoform 1 P82W, P00044 are 2.38 kcal/mol, 1.37 kcal/mol/K, 2.7 kcal/mol, 47 °C and -6.5 °C.
As for Cytochrome c isoform 1 P82Y, P00044, where the note is “structure 1YCC”, the “ddG of mutation (higher = less stable)” value turned out to be 2.07 kcal/mol, the “heat capacity change of unfolding” value was determined as 1.37 kcal/mol/K, the unfolding free energy worked out at 3.01 kcal/mol and the Tm is 46.7 °C. Besides, for the setting “structure 1YCC”, the “change of melting temperature, mutant” value was -6.8 °C.
For the substance “Cytochrome c isoform 1 wild type, P00044”, the “heat capacity change of unfolding” value amounted to 1.37 kcal/mol/K, the unfolding free energy worked out at 5.08 kcal/mol and the midpoint of thermal melting (Tm) was found to be 53.5 °C.
